Patent US20020045591A1, “Methods and therapeutic compositions for treating cancer” (priority 1998, published 2002)

Key:
[1] = system: SW480 cells; test: Immunofluorescence localization in SW480 cells (Example 1); format: cell-based, human; details: transfected SW480 cells, FIG. 6B
Excerpt: Immunofluorescence microscopy: Cells cultured on glass coverslips were fixed with 3% paraformaldehyde in phosphate-buffered saline (PBS) and permeabilized with 0.5% Triton X-100. CHO cells were immunofluorescently labeled as described (Levenberg S. et al. (1998) Long-range and selective autoregulation of cell-cell and cell-matrix adhesions by cadherin or integrin ligands. J. Cell Sci. 111:347-357). Nuclei were visualized using DAPI and the fluorescence was examined using a Zeiss Axiophot microscope and a x100/1.3 Planapochromat objective.

[2] = system: β-catenin-mediated transactivation; test: TOPFLASH/FOPFLASH luciferase transactivation in CHO cells; format: cell-based; details: TOPFLASH, FIG. 5A lanes 7-9
Description: (§1) Cell culture and transfections: CHO and SW480 human colon carcinoma cells were cultured in Dulbecco's modified Eagle's medium containing 10% fetal calf serum in an 8% CO2 incubator at 37° C. Transfections were performed using Lipofectamine (Gibco, BRL, USA) according to the manufacturer's instructions. Stably transfected CHO clones were generated by co-transfection with a plasmid encoding the puromycin resistance gene. Two days after transfection, cells were replated in the presence of 10 μg/ml puromycin (Sigma, Holon, Israel). Stable clones were isolated 2 weeks later and tested for the expression of the transgene by Western blot analysis.
(§2) Transactivation assays: CHO cells were transfected with TOPFLASH or FOPFLASH vectors (van de Wetering et al., 1997, ibid) and with pCDNA3 coding for β-galactosidase to normalize for transfection efficiency. The transfection mixture also contained either β-catenin, LEF-1 or cadherin derivatives in different combinations, as indicated. SW480 cells were transfected with TOPFLASH and cadherin derivatives. […] The reactions were stopped with 1 M Na2CO3 and the absorbance at 420 nm was determined. […] The luciferase reaction was monitored by a TD-20e luminometer (Turner, USA) and normalized for the β-galactosidase activity. […]

[3] = system: β-catenin-mediated transactivation; test: TOPFLASH luciferase transactivation in SW480 cells (Example 1); format: cell-based, human; details: SW480 cells transfected with TOPFLASH and N-cadherin derivative, FIG. 6A
Description: as §1, §2

B1: N-cadherin tail: Cytoplasmic domain of chicken N-cadherin tagged with a Flag epitope (protein)
chain: MKRRDKERQAKQLLIDPEDDVRDNILKYDEEGGGEEDQDYDLSQLQQPDTVEPDAIKPVGIRRLDERPIHAEPQYPVRSAAPHPGDIGDFINEGLKAADNDPTAPPYDSLLVFDYEGSGSTAGSLSSLNSSSSGGEQDYDYLNDWGPRFKKLADMYGGGDD
modifications: left off: small tags and cut ends
subcellular localization of β-catenin [1]: colocalized with β-catenin in the nucleus
luciferase activity (LEF-1 transactivation) after transfection with LEF-1 and cadherin derivative [2]: no specific transactivation was detected
inhibition of TOPFLASH reporter (luciferase) activity [3]: more than 85%
